The results in this text go back to patent US20210155689A1 (SHANGHAI PHARMAEXPLORER, published 2021).

In experiment [1] the target is T1, human LAG-3 (full length, on the cell surface) (human, UniProt P18627 23-525).
T1 construct: Full-length human LAG-3 expressed on cells; also called HEK293-hLAG-3; HEK293 cells transfected with LAG-3 gene
T1 sequence: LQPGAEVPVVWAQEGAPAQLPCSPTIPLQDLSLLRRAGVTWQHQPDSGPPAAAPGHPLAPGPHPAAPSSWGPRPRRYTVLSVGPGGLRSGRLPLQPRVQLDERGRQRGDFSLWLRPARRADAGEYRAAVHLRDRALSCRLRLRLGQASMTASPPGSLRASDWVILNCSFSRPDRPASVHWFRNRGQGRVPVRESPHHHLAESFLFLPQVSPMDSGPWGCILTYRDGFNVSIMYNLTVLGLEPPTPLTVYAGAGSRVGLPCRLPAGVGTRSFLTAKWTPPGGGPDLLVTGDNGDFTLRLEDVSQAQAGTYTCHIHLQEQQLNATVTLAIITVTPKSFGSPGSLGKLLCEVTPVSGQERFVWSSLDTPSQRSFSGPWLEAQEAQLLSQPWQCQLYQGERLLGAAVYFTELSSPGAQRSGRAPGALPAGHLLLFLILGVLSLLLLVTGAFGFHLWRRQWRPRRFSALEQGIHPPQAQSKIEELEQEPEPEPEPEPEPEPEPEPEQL
Briefly: FACS, HEK293-hLAG-3; 1.600 nM. The text has this: (§1) The pIRES plasmid with the monkey-derived full-length gene was transfected into the HEK293 cell line to construct a HEK293 stable cell line containing monkey LAG-3 (herein referred to as HEK293-cLAG-3 stable cell line). The HEK293-hLAG-3 stable cell line and HEK293-cLAG-3 stable cell line were expanded in a T-75 cell culture flask to a 90% confluence. The medium was aspirated, and the cells were washed with HBSS (Hanks' Balanced Salt Solution) 1-2 times, then treated with a enzyme-free cell dissociation fluid (Versene solution: Life technology) and the cells were collected. The cells were washed with HBSS buffer for 1-2 times. After counted, the cells were diluted with HBSS to 1-2×10⁶ cells per ml, added with 1% goat serum blocking solution, incubated on ice for 20-30 minutes, and then washed with HBSS for 2 times by centrifugation. The collected cells were suspended in the FACS buffer (HBSS+1% BSA) to 2×10⁶ cells/ml, added as 100 microliters per well to a 96-well FACS reaction plate, added with 100 microliters per well of the antibody sample to be tested, incubated on ice for 1-2 hours. The plate was washed twice with the FACS buffer by centrifugation, added with 100 microliters of fluorescent (Alexa 488)-labeled secondary antibodies per well, and incubated on ice for 0.5-1.0 hours. The plate was washed 2-3 times with FACS buffer by centrifugation, added with 100 μl fixative solution (4% Paraformaldehyde) per well to suspend the cells. 5-10 minutes later, it was washed 1-2 times with FACS buffer by centrifugation. The cells were suspended with 100 microliters of FACS buffer, FACS (FACSCalibur, BD) was used for detection and the results were analyzed.

Experiment [2] deals with T2, monkey LAG-3 (full length, on the cell surface) (monkey, UniProt P18627 24-525 (human entry)).
T2 construct: also called HEK293-cLAG-3; monkey LAG-3 protein on the cell surface
T2 chain: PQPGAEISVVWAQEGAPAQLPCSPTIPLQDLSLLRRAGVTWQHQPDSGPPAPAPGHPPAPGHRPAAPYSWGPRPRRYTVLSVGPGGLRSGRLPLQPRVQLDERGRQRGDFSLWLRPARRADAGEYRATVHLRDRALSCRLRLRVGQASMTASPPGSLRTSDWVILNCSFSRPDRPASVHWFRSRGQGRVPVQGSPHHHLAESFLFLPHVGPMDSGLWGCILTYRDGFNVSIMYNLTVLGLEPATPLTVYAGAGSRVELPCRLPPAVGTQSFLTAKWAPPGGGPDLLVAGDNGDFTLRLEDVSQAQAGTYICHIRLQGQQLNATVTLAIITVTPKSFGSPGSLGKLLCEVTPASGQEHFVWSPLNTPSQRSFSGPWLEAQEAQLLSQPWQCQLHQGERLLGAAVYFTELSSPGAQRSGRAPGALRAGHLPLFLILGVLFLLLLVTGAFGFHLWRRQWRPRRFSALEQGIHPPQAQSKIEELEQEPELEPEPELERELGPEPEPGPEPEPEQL
Briefly: FACS, HEK293-cLAG-3; 40.000 nM.
Description: as §1

Experiment [3] has as its target T3, hFc tagged monkey LAG-3 protein (cLAG-3-hFc protein) (monkey; human).
T3 construct: Made in HEK293 cells; also called monkey LAG-3 extracellular domain protein; not shown: human IgG Fc fragment (hFc) of the pCpC vector
T3 chain: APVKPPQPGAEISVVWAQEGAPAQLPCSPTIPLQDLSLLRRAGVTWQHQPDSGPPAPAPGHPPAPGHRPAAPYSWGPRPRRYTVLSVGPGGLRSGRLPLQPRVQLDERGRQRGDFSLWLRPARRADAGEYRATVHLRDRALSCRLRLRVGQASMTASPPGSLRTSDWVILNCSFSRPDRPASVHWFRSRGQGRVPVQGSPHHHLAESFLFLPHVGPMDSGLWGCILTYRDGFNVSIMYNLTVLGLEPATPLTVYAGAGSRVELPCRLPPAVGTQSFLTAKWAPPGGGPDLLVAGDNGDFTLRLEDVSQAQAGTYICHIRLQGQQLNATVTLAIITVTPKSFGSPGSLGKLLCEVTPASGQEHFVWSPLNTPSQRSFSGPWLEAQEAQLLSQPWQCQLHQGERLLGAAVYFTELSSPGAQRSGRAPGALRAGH
Briefly: ELISA, cLAG-3-hFc coated; 0.0001 nM. Here is the method:
(§2) The plate was sealed with plastic film and incubated overnight at 4° C. The plate was washed 2 times with the plate washing solution (PBS+0.01% Tween20) on the next day, and added with the blocking solution (PBS+0.01% Tween20+1% BSA) and blocked at room temperature for 1-2 hours. The blocking solution was poured out, and the plate was added with 50-100 μl of the antibody sample to be tested to each well, incubated at 37° C. for 1-2 hours, and washed 2-3 times with a plate washing solution (PBS+0.01% Tween20). HRP (horseradish peroxidase) labeled secondary antibody was added, and the plate was incubated at 37° C. for 1-2 hours, and washed 2-3 times with a plate washing solution (PBS+0.01% Tween20). 100 μl of TMB substrate was added to each well. After incubated at room temperature for 15-30 minutes, the plate was added with 100 μl of stop solution (1.0N HCl) to each well.

The target of experiment [4] is T3, hFc tagged monkey LAG-3 protein …. Briefly: ELISA, cLAG-3-hFc coated; 66.6670 nM. Here is the method: as §2

B1: 556F6B8 (mouse antibody purified from hybridoma) (antibody, V domains shown)
VH: RVQLKQSGPGLVQPSQSLSITCTVSGFSLIKYGVHWVRQSPGEGLEWLGVIWRGGITDYNAAFMSRLSITKDNSKSQVFFKMNSLQADDTAIYYCAKWDGPLAMDYWGQGTSVTVSS
VL: DIVMTQSHKFLSTSVGDRVSITCKASQDVGTTVAWYQQKPGQSPKLLIYWASTRHTGVPDRFTGSGSGTDFTLTISNVQSEDLADYFCQQYSSYPYTFGGGTKLEIK
notes: also called mAb123-556F6B8
As for B1, the Mean fluorescence intensity in experiment [1] was 43.5 MFI; in experiment [2], 51 MFI.

B2: 556F6B8 (LAG-3 mouse-human chimeric antibody) (antibody, V domains shown)
VH: RVQLKQSGPGLVQPSQSLSITCTVSGFSLIKYGVHWVRQSPGEGLEWLGVIWRGGITDYNAAFMSRLSITKDNSKSQVFFKMNSLQADDTAIYYCAKWDGPLAMDYWGQGTSVTVSS
VL: DIVMTQSHKFLSTSVGDRVSITCKASQDVGTTVAWYQQKPGQSPKLLIYWASTRHTGVPDRFTGSGSGTDFTLTISNVQSEDLADYFCQQYSSYPYTFGGGTKLEIK
notes: also called 556F8B8
Regarding B2, the OD450 in experiment [3] worked out at 0.18 OD450; in experiment [4], 3.72 OD450.

B3: 405B8H3 (mouse antibody purified from hybridoma) (antibody, V domains shown)
VH: QVQLQQSGAELVRPGASVTLSCKASGYTFTDYEMHWVKQTPVHGLEWIGATDPETGNSAYNQKFKGKAIMTADKSSSTAYMELRSLTSEDSAVYYCISTGWNDWGQGTSLTVSS
VL: DIKMTQSPSSMYASLGERVTITCKASQDINSYLSWFQQKPGKSPKTLIYRADRLLDGVPSRFSGSGSGQDYSLTISSLEYGDMGIYYCLQYDEFPYTFGGGTKLEIK
notes: also called mAb103-405B8H3; 405B81-13
In the case of B3, the values for the Mean fluorescence intensity in experiment [1] and in experiment [2] were 99.4 MFI and 108 MFI, respectively.

B4: 105F1E10 (mouse antibody purified from hybridoma) (antibody, V domains shown)
VH: EVQLQQSGPELVKPGASVKMSCRASGYTFTDFKMHWMKQSHGKSLEWIGYIAPNNGGTAYNQKFRGKATLTVNESSNTAYMELRSLTSEDSAVYYCVDWDDVDYWGQGTTLTVSS
VL: DIKMTQSPSSMYASLGERVTITCKASQDINSYLSWFQQKSGKSPKTLIYRANRLVDGVPSRFSGSGSGQDYSLTISSLEYEDMGIYYCLQYVEFPLTFGAGTKLELK
notes: also called mAb009-105F1E10
For B4, the Mean fluorescence intensity was found to be 86.2 MFI in experiment [1] and 87 MFI in experiment [2].

B5: 105F1E10 (LAG-3 mouse-human chimeric antibody) (antibody, V domains shown)
VH: EVQLQQSGPELVKPGASVKMSCRASGYTFTDFKMHWMKQSHGKSLEWIGYIAPNNGGTAYNQKFRGKATLTVNESSNTAYMELRSLTSEDSAVYYCVDWDDVDYWGQGTTLTVSS
VL: DIKMTQSPSSMYASLGERVTITCKASQDINSYLSWFQQKSGKSPKTLIYRANRLVDGVPSRFSGSGSGQDYSLTISSLEYEDMGIYYCLQYVEFPLTFGAGTKLELK
In the case of B5, the OD450 in experiment [3] was found to be 0.14 OD450; in experiment [4], 3.59 OD450.

B6: 405B8H3 (LAG-3 mouse-human chimeric antibody) (antibody, V domains shown)
VH: QVQLQQSGAELVRPGASVTLSCKASGYTFTDYEMHWVKQTPVHGLEWIGATDPETGNSAYNQKFKGKAIMTADKSSSTAYMELRSLTSEDSAVYYCISTGWNDWGQGTSLTVSS
VL: DIKMTQSPSSMYASLGERVTITCKASQDINSYLSWFQQKPGKSPKTLIYRADRLLDGVPSRFSGSGSGQDYSLTISSLEYGDMGIYYCLQYDEFPYTFGGGTKLEIK
notes: also called mouse-human chimeric antibody 405B8H3
For B6, the values for the OD450 in experiment [3] and in experiment [4] were 0.15 OD450 and 3.46 OD450, respectively.

B7: 409B11E12 (LAG-3 mouse-human chimeric antibody) (antibody, V domains shown)
VH: QVQLQQSGAELVRPGASVTLSCKASGYTFTDYEMHWVKQTTVHGLEWIGATDPETSYSAYNQKFKGKAILTADKSSSTAYMELRSLTSEDSAVYYCIATGWNDWGQGTSLTVSS
VL: DLKMTQSPSSMYASLGERVTITCKASQDINSYLSWFQQKPGKSPKTLIYRANRLLDGVPSRFSGSGSGQDYSLTISSLEYEDMGIYYCLQYDEFPYTFGGGTKLEIK
For B7, the OD450 in experiment [3] worked out at 0.14 OD450; in experiment [4], 3.44 OD450.

B8: 409D4E10 (mouse antibody purified from hybridoma) (antibody, V domains shown)
VH: QVQLQQSGAELVRPGASVTLSCKASGNTFTDYEMHWVKQTPVHGLEWIGATDPETDNTAYNQKFKGKAILTTDKSSSTAYMELRSLTSEDSAVYYCITSGWNDWGQGTSLTVSS
VL: DIKMTQSPSSMYASLGERVTITCKASQDINSYLSWFQQKPGKSPKTLIYRANRLLDGVPSRFSGSGSGQDYSLTISSLEYEDMGIYYCLQYNEFPYTFGGGTKLEIK
notes: also called mAb112-409D4E10
Consider B8, for which the Mean fluorescence intensity stood at 48 MFI in experiment [1] and 130 MFI in experiment [2].

B9: 409B11E12 (mouse antibody purified from hybridoma) (antibody, V domains shown)
VH: QVQLQQSGAELVRPGASVTLSCKASGYTFTDYEMHWVKQTTVHGLEWIGATDPETSYSAYNQKFKGKAILTADKSSSTAYMELRSLTSEDSAVYYCIATGWNDWGQGTSLTVSS
VL: DLKMTQSPSSMYASLGERVTITCKASQDINSYLSWFQQKPGKSPKTLIYRANRLLDGVPSRFSGSGSGQDYSLTISSLEYEDMGIYYCLQYDEFPYTFGGGTKLEIK
notes: also called mAb104-409B11E12
In the case of B9, the Mean fluorescence intensity in experiment [1] was found to be 55.6 MFI; in experiment [2] it was 102 MFI.

B10: 409D4E10 (LAG-3 mouse-human chimeric antibody) (antibody, V domains shown)
VH: QVQLQQSGAELVRPGASVTLSCKASGNTFTDYEMHWVKQTPVHGLEWIGATDPETDNTAYNQKFKGKAILTTDKSSSTAYMELRSLTSEDSAVYYCITSGWNDWGQGTSLTVSS
VL: DIKMTQSPSSMYASLGERVTITCKASQDINSYLSWFQQKPGKSPKTLIYRANRLLDGVPSRFSGSGSGQDYSLTISSLEYEDMGIYYCLQYNEFPYTFGGGTKLEIK
On to B10, for which the OD450 in experiment [3] is 0.19 OD450; in experiment [4] it was 3.77 OD450.
